Sequences and labels used below:
B1: Hairpin Ribozyme (parent)
chain: GUCCUCUUUCACGUGCGCGUGAAAGAGAGAAGUGAACCAGAGAAACACACGUUGUGGUAUAUUACCUGGUA

The text below walks through data of the RNAGym collection of RNA variant scans (doi:10.7554/elife.80360).

The variants in the data set derive from B1. Put plainly: self-cleavage, relative activity (ratio to wild type); higher = more cleavage; co-transcriptional.
GUCCUCUUUCACGUGCGCGUGAAAGAGAGAAGUGAACCAGAGAAACACAGCUUGUGGUAUAUUACCUGGUA [C50G G51C]: the self-cleavage amounted to 0.327.

Take GUCCUCUUUCACGUGCGCGUGAAAGAGAGAAGUGAACCAGAGAAACACACGUUGAGAUAUAUUACCUGGUA [U55A G57A]: the self-cleavage was 0.148.

Take GUCCACUUUCACGUGCGCGUGAAAGAGAGAAGUGAACCAGAGAAACACACGUUGUGGGAUAUUACCUGGUA [U5A U58G]: the self-cleavage is 0.251.

With GUACUCUUUCACGUGCGCGUGAAAGAGAGAAGUGAACCAGAGAAAAACACGUUGUGGUAUAUUACCUGGUA [C3A C46A], the self-cleavage came out at 0.219.

Turning to AUCCUCUUUCACGUGCGCGUGAAAGAGAGAAGUGAACCAGAGAAACACUCGUUGUGGUAUAUUACCUGGUA [G1A A49U], the self-cleavage was 0.061.

Regarding GUCCUCUUUCACGUGCGCGUGAAAGAGAGAAGUGAAUCAGAGAAACACACGUUGUGGUACAUUACCUGGUA [C37U U60C], the self-cleavage is 0.645.

As to GUCCUGUCUCACGUGCGCGUGAAAGAGAGAAGUGAACCAGAGAAACACACGUUGUGGUAUAUUACCUGGUA [C6G U8C], the self-cleavage is 0.228.

For GUCCUCUUUCACGUGCGCCUGAAAGAGAGAAGUGAACCAAAGAAACACACGUUGUGGUAUAUUACCUGGUA [G19C G40A], the self-cleavage was determined as 0.343.

As to GUCCUCUUUCACGUGCGCGCGAAAGAGAGAAGCGAACCAGAGAAACACACGUUGUGGUAUAUUACCUGGUA [U20C U33C], the self-cleavage came out at 0.13.

As for GUCCUCUUUCACGUGCGCGUGAAAGAGAGAAUUGAACCAGAGAAACACACGUUGUGGUAUAUUACCUGUUA [G32U G69U], the self-cleavage came out at 0.0924.

Consider GUCCUCUUUCACGUGCGCGUGAAAUAGAGAAGUGAACCAGAGAAACACAGGUUGUGGUAUAUUACCUGGUA [G25U C50G], for which the self-cleavage was 0.25.

Consider GUCCUCUUUCACGUGCGCGUGAAAGAGUGAAGUGAACCAGAGAAACACACGUUGUGGUAGAUUACCUGGUA [A28U U60G], for which the self-cleavage worked out at 0.3.

Consider GUCCUCUAUCACGUGCGCGUGAAAGAGUGAAGUGAACCAGAGAAACACACGUUGUGGUAUAUUACCUGGUA [U8A A28U], for which the self-cleavage turned out to be 0.613.

For the variant GUCCUCUUUCACGUGCGCGUGAAAGAGAGAAGUAAACCAGAGAAAGACACGUUGUGGUAUAUUACCUGGUA [G34A C46G], the self-cleavage amounted to 0.159.

With GUACUCUUUCACGUGCGCGUGAAAUAGAGAAGUGAACCAGAGAAACACACGUUGUGGUAUAUUACCUGGUA [C3A G25U], the self-cleavage turned out to be 0.406.

Consider GUCCUCUUUCACGUGCGCGUGAAAGCGAGAAGUGAACCAGAGAAACACACGUUGUGGUAUAUUACAUGGUA [A26C C66A], for which the self-cleavage stood at 0.34.

Regarding GUCCUCUUUGACGUGCGCGUGAAAGAGAGAAGUGAACCAGAGAAACACACGUUGUGGUAGAUUACCUGGUA [C10G U60G], the self-cleavage came to 0.442.

Consider GUCCUCUUUCACGUGCGCGUGAGAGAGAGAAGUGAACCAGAGAAACACACGUUGUUGUAUAUUACCUGGUA [A23G G56U], for which the self-cleavage was determined as 0.162.

GUCCUCAUUCACGUGCGCGUGAAAGAGAGAAGUGAACCAGAGAAACACACGUUGUGAUAUAUUACCUGGUA [U7A G57A]: the self-cleavage is 0.128.

In the case of GUCCUCUUUCACGUGCCCGUGAAAGAGAGAAGUGAACCAGAGAAACACACGUUGUGGAAUAUUACCUGGUA [G17C U58A], the self-cleavage stood at 0.453.

Take GUCCUCUUUCACGUGCGCGUGAAAGAGGGAAGUGAACCAGAGAAACACACGUUGUGGGAUAUUACCUGGUA [A28G U58G]: the self-cleavage came out at 0.91.

On to GUCCUCUUUCACGUGCGCGUGAAAGAGAGAAGUGAUCCAGAGAAACACACGUUGUCGUAUAUUACCUGGUA [A36U G56C], for which the self-cleavage turned out to be 0.131.

AUCCUCUUUCACGUGCGCGUGAAAGAGAGAAGUGAACCAGAGAAACAUACGUUGUGGUAUAUUACCUGGUA [G1A C48U]: the self-cleavage amounted to 0.0691.

Regarding GUCCUCUUUCACGUGCUCGUGAAAGAGAGAAGUGAACCAGAGAAAUACACGUUGUGGUAUAUUACCUGGUA [G17U C46U], the self-cleavage is 0.14.

Consider GUCCUCUUUCACGUGCGCGUGAAAGAGAGAAGUGAACCAGUGAAACACACGUUGUGGUAUAUAACCUGGUA [A41U U63A], for which the self-cleavage amounted to 0.105.

For GUCCUCUUUCACGUGCGCGUGAAAGAGAGAAGUGAACCAGUGAAACACACGUUGUGGUGUAUUACCUGGUA [A41U A59G], the self-cleavage turned out to be 0.255.

For the variant GUCCUCUUCCACGUGCGCGUGAAAGAGAGAAGGGAACCAGAGAAACACACGUUGUGGUAUAUUACCUGGUA [U9C U33G], the self-cleavage stood at 0.154.

Consider GACCUCUUCCACGUGCGCGUGAAAGAGAGAAGUGAACCAGAGAAACACACGUUGUGGUAUAUUACCUGGUA [U2A U9C], for which the self-cleavage came to 0.233.

Consider GUCCUUUUUCACGUGCGCGUGAAAGAGAGAAGUGAACCAGAGAAACACACGUUGUGGUAUAUUACCUCGUA [C6U G68C], for which the self-cleavage stood at 0.154.

In the case of GUCCUCUUUCACGUGCGCGUGAAAGAGAGAAGUGAAUCAGAGAAACACACGUUGUGGUAUAUUACCUGGUA [C37U], the self-cleavage is 0.614.

As for GUCCUCUUUCACGUGCGCGUGAAAGAGAGGAGUAAACCAGAGAAACACACGUUGUGGUAUAUUACCUGGUA [A30G G34A], the self-cleavage is 0.164.

As to GUCCUCUUUCACGUGCGCGUGAAAGAGACAAGUGAACCAGAGUAACACACGUUGUGGUAUAUUACCUGGUA [G29C A43U], the self-cleavage came out at 0.0794.

Consider GUCCUCUUUCACGUGCGCGUGAAAGAGAGAAGUGAACCAGAGAAACACACGUUGUGGUAUAGUGCCUGGUA [U62G A64G], for which the self-cleavage was 0.166.

In the case of GUCCUCUUUCACGUGCGCGUGAAAGAGAGAAGUGAACCAGAGAAACACACGUUGUGGCAUAUGACCUGGUA [U58C U63G], the self-cleavage was 0.27.

As to GUCCUCUUUCACGUGCGCGUGGAAGAGGGAAGUGAACCAGAGAAACACACGUUGUGGUAUAUUACCUGGUA [A22G A28G], the self-cleavage came to 0.735.

Turning to GUCCUCUUUCACGUGCGCGUGAAAGAGAGAAGUGAACCAGAGAAACAAACGUGGUGGUAUAUUACCUGGUA [C48A U53G], the self-cleavage was determined as 0.191.

On to GUCCUCUUUCACGUGCGCGUGAAAGAGAGAAGUGAACCAGAGAAACACACGUUGUGGUAUAUUACUUGGUC [C66U A71C], for which the self-cleavage turned out to be 0.757.

With GUCUUCUUUCACGUGCGCGUGAAAGAGAGAAGUGAACCAGAGACACACACGUUGUGGUAUAUUACCUGGUA [C4U A44C], the self-cleavage was 0.102.
